Measurements published in patent US20250243277A1 (AVACTA LIFE SCIENCES, published 2025).

B1: Clone 231 (designed binder)
chain: MIPGGLSEAKPATPEIQEIVDKVKPQLEEKTGETYGKLEAVQYKTQVVARWHWFHHFGTNYYIKVRAGDNKYMHLKVFKSLNPINGQETWEDLVLTGYQVDKNKDDELTGF
notes: His-tagged
B2: Clone 229 (designed binder)
chain: MIPGGLSEAKPATPEIQEIVDKVKPQLEEKTGETYGKLEAVQYKTQVVHSSSKPYIHGTNYYIKVRAGDNKYMHLKVFKSLNWNRPYNDLEDLVLTGYQVDKNKDDELTGF
notes: His-tagged
B3: Clone 232 (designed binder)
chain: MIPGGLSEAKPATPEIQEIVDKVKPQLEEKTGETYGKLEAVQYKTQVVTKHSATFFHGTNYYIKVRAGDNKYMHLKVFKSLIGNGQYWYREDLVLTGYQVDKNKDDELTGF
notes: His-tagged
B4: Clone 210 (designed binder)
chain: MIPGGLSEAKPATPEIQEIVDKVKPQLEEKTGETYGKLEAVQYKTQVVWEYAGDYLEGTNYYIKVRAGDNKYMHLKVFKSLFHGIWWARVEDLVLTGYQVDKNKDDELTGF
notes: His-tagged
B5: Clone 34 (designed binder)
chain: MIPGGLSEAKPATPEIQEIVDKVKPQLEEKTGETYGKLEAVQYKTQVVTHLNNNAWTGTNYYIKVRAGDNKYMHLKVFKSLFFHNGKIYREDLVLTGYQVDKNKDDELTGF
notes: His-tagged
B6: Clone 203 (designed binder)
chain: MIPGGLSEAKPATPEIQEIVDKVKPQLEEKTGETYGKLEAVQYKTQVVYHGPPKEWLGTNYYIKVRAGDNKYMHLKVFKSLFFWKGNGYREDLVLTGYQVDKNKDDELTGF
notes: His-tagged
B7: Clone 211 (designed binder)
chain: MIPGGLSEAKPATPEIQEIVDKVKPQLEEKTGETYGKLEAVQYKTQVVTHPEDAYSWGTNYYIKVRAGDNKYMHLKVFKSLLKPGGLLDFEDLVLTGYQVDKNKDDELTGF
notes: His-tagged
B8: Clone 221 (designed binder)
chain: MIPGGLSEAKPATPEIQEIVDKVKPQLEEKTGETYGKLEAVQYKTQVVIQDVDWRLWGTNYYIKVRAGDNKYMHLKVFKSLVPSDWSKTIEDLVLTGYQVDKNKDDELTGF
notes: His-tagged
B9: Clone 251 (designed binder)
chain: MIPGGLSEAKPATPEIQEIVDKVKPQLEEKTGETYGKLEAVQYKTQVVATDQDWRKWGTNYYIKVRAGDNKYMHLKVFKSLIPLNWQLQEEDLVLTGYQVDKNKDDELTGF
notes: His-tagged
B10: Clone 216 (designed binder)
chain: MIPGGLSEAKPATPEIQEIVDKVKPQLEEKTGETYGKLEAVQYKTQVVFTEVKPFVEGTNYYIKVRAGDNKYMHLKVFKSLSWNAPFPAGEDLVLTGYQVDKNKDDELTGF
notes: His-tagged
B11: Clone 23 (designed binder)
chain: MIPGGLSEAKPATPEIQEIVDKVKPQLEEKTGETYGKLEAVQYKTQVVYWEHHHYGFGTNYYIKVRAGDNKYMHLKVFKSLAWPEIDPPVEDLVLTGYQVDKNKDDELTGF
notes: His-tagged
B12: Clone 227 (designed binder)
chain: MIPGGLSEAKPATPEIQEIVDKVKPQLEEKTGETYGKLEAVQYKTQVVYVRWHEYGFGTNYYIKVRAGDNKYMHLKVFKSLSNQLIPQPIEDLVLTGYQVDKNKDDELTGF
notes: His-tagged
B13: Clone 82 (designed binder)
chain: MIPGGLSEAKPATPEIQEIVDKVKPQLEEKTGETYGKLEAVQYKTQVVFWQLHRYGFGTNYYIKVRAGDNKYMHLKVFKSLEWNRLSPLWEDLVLTGYQVDKNKDDELTGF
notes: His-tagged
B14: Clone 79 (designed binder)
chain: MIPGGLSEAKPATPEIQEIVDKVKPQLEEKTGETYGKLEAVQYKTQVVIWHSEWSYTGTNYYIKVRAGDNKYMHLKVFKSLFTRHSEPWEEDLVLTGYQVDKNKDDELTGF
notes: His-tagged
B15: Clone 202 (designed binder)
chain: MIPGGLSEAKPATPEIQEIVDKVKPQLEEKTGETYGKLEAVQYKTQVVIRHVIWSYSGTNYYIKVRAGDNKYMHLKVFKSLWERNASLSEEDLVLTGYQVDKNKDDELTGF
notes: His-tagged
B16: Clone 214 (designed binder)
chain: MIPGGLSEAEPATPEIQEIVDKVKPQLEEKTGETYGKLEAVQYKTQVVIKIHHGSWEGTNYYIKVRAGDNKYMHLKVFKSLLFWQKQFYREDLVLTGYQVDKNKDDELTGF
notes: His-tagged
B17: Clone 22 (designed binder)
chain: MIPGGLSEAKPATPEIQEIVDKVKPQLEEKTGETYGKLEAVQYKTQVVHRLHFPIYYGTNYYIKVRAGDNKYMHLKVFKSLHFTLPTQHPEDLVLTGYQVDKNKDDELTGF
notes: His-tagged
B18: Clone 220 (designed binder)
chain: MIPGGLSEAKPATPEIQEIVDKVKPQLEEKTGETYGKLEAVQYKTQVVNRWNIREFEGTNYYIKVRAGDNKYMHLKVFKSLINVPVTELLEDLVLTGYQVDKNKDDELTGF
notes: His-tagged
B19: Clone 230 (designed binder)
chain: MIPGGLSEAKPATPEIQEIVDKVKPQLEEKTGETYGKLEAVQYKTQVVHVSNFIIPHGTNYYIKVRAGDNKYMHLKVFKSLNWEGNDLATEDLVLTGYQVDKNKDDELTGF
notes: His-tagged
B20: Clone 226 (designed binder)
chain: MIPGGLSEAKPATPEIQEIVDKVKPQLEEKTGETYGKLEAVQYKTQVVYKHDDEYGFGTNYYIKVRAGDNKYMHLKVFKSLKWTNRANKPEDLVLTGYQVDKNKDDELTGF
notes: His-tagged
B21: Clone 228 (designed binder)
chain: MIPGGLSEAKPATPEIQEIVDKVKPQLEEKTGETYGKLEAVQYKTQVVVWTSDDAWQGTNYYIKVRAGDNKYMHLKVFKSLFKFEIYKHTEDLVLTGYQVDKNKDDELTGF
notes: His-tagged
B22: Clone 21 (designed binder)
chain: MIPGGLSEAKPATPEIQEIVDKVKPQLEEKTGETYGKLEAVQYKTQVVKRPHFLQFSGTNYYIKVRAGDNKYMHLKVFKSLNIGPAKKQLEDLVLTGYQVDKNKDDELTGF
notes: His-tagged
B23: Clone 215 (designed binder)
chain: MIPGGLSEAKPATPEIQEIVDKVKPQLEEKTGETYGKLEAVQYKTQVVRRVFFPEFPGTNYYIKVRAGDNKYMHLKVFKSLEQPIEGDLWEDLVLTGYQVDKNKDDELTGF
notes: His-tagged
B24: Clone 212 (designed binder)
chain: MIPGGLSEAKPATPEIQEIVDKVKPQLEEKTGETYGKLEAVQYKTQVVYAFITPVTHGTNYYIKVRAGDNKYMHLKVFKSLWLNNFGKNFEDLVLTGYQVDKNKDDELTGF
notes: His-tagged
B25: Clone 206 (designed binder)
chain: MIPGGLSEAKPATPEIQEIVDKVKPQLEEKTGETYGKLEAVQYKTQVVRADVNVIWWGTNYYIKVRAGDNKYMHLKVFKSLPVKYKEILLEDLVLTGYQVDKNKDDELTGF
notes: His-tagged
B26: Clone 222 (designed binder)
chain: MIPGGLSEAEPATPEIQEIVDKVKPQLEEKTGETYGKLEAVQYKTQVVQRDHFPEFPGTNYYIKVRAGDNKYMHLKVFKSLGHELYALYAEDLVLTGYQVDKNKDDELTGF
notes: His-tagged
B27: Clone 218 (designed binder)
chain: MIPGGLSEAKPATPEIQEIVDKVKPQLEEKTGETYGKLEAVQYKTQVVWRVYFPDFKGTNYYIKVRAGDNKYMHLKVFKSLDEVDEIPHFEDLVLTGYQVDKNKDDELTGF
notes: His-tagged
B28: Clone 213 (designed binder)
chain: MIPGGLSEAKPATPEIQEIVDKVKPQLEEKTGETYGKLEAVQYKTQVVKQHTKEWAPGTNYYIKVRAGDNKYMHLKVFKSLWNHLYHYPFEDLVLTGYQVDKNKDDELTGF
notes: His-tagged
B29: Clone 24 (designed binder)
chain: MIPGGLSEAKPATPEIQEIVDKVKPQLEEKTGETYGKLEAVQYKTQVVEEGTPEWAPGTNYYIKVRAGDNKYMHLKVFKSLWSDVLYNDFEDLVLTGYQVDKNKDDELTGF
notes: His-tagged
B30: Clone 225 (designed binder)
chain: MIPGGLSEAKPATPEIQEIVDKVKPQLEEKTGETYGKLEAVQYKTQVVDLHTPHYAPGTNYYIKVRAGDNKYMHLKVFKSLWNTLLEFGGEDLVLTGYQVDKNKDDELTGF
notes: His-tagged
B31: Clone 234 (designed binder)
chain: MIPGGLSEAKPATPEIQEIVDKVKPQLEEKTGETYGKLEAVQYKTQVVRNSGVWEFEGTNYYIKVRAGDNKYMHLKVFKSLGKYKTNWYFEDLVLTGYQVDKNKDDELTGF
notes: His-tagged
B32: Clone 204 (designed binder)
chain: MIPGGLSEAKPATPEIQEIVDKVKPQLEEKTGETYGKLEAVQYKTQVVSLRPHEQLYGTNYYIKVRAGDNKYMHLKVFKSLHLKLWKIPNEDLVLTGYQVDKNKDDELTGF
notes: His-tagged
B33: Clone 209 (designed binder)
chain: MIPGGLSEAKPATPEIQEIVDKVKPQLEEKTGETYGKLEAVQYKTQVVIAKEENHWRGTNYYIKVRAGDNKYMHLKVFKSLHYYQDVLYREDLVLTGYQVDKNKDDELTGF
notes: His-tagged

molecular target: T1, human PD-L1-Fc (R&D Systems) (human, UniProt Q9NZQ7 19-239); test: soluble Affimer ELISA
T1 construct: Bought from R&D Systems; Biotinylated in-house for the phage selection; also called huPD-L1-Fc; human PD-L1-Fc antigen; not shown: Fc part of the bought fusion
T1 sequence (Q9NZQ7 19-239 limits assumed): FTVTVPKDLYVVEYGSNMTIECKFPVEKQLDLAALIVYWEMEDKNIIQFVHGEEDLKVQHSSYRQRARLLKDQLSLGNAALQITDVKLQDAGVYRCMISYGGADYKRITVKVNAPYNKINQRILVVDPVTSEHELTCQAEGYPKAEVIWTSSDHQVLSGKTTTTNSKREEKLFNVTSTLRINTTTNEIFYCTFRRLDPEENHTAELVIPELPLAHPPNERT

Binding result, binds:
B1, B2, B3, B4, B5, B6, B7, B8, B9, B10, B11, B12, B13, B14, B15, B16, B17, B18, B19, B20, B21, B22, B23, B24, B25, B26, B27, B28, B29, B30, B31, B32, B33
